From patent US20140308269A1 (published 2014)

How the values were obtained:
[1] = biological target: T1, soluble ICAM-1 (Bender MedSystems) (UniProt P05362 28-480, limits assumed); assay: ELISA on plate-coated soluble ICAM-1; reference Msc1A6
T1 construct: Bought soluble protein coated on the ELISA plate
Protocol: (§1) To evaluate the binding affinity of histidine-tagged human single chain (hsc) proteins soluble ICAM was used in an ELISA assay. A 96-well EIA plate (Corning, Inc.) was coated with 100 μl/well soluble ICAM-1 (Bender MedSystems) at 1 μg/ml in 0.1 M. NaHCO₃. After washing with TBST (50 mM Tris, pH8.0, 150 mM NaCl, 0.05% Tween-20), the plate was blocked with 3% non-fat milk in TBST at 37° C. for 1 hour. After washing with TBST, the plate was incubated with scFv samples (100 μl/well) diluted in 1% non-fat milk/TBST solution at room temperature for 1 hour. After washing with TBST, the horse radish peroxidase-conjugated anti-His (C-term) antibody (Invitrogen) diluted 1:2000 in 1% non-fat milk/TBST was added and the plate was incubated at room temperature for 1 hour. The plate was washed thoroughly with TBST and 100 μl/well 3,3′,5,5′-tetramethylbenzidine substrate solution (Kirkegaard and Perry Laboratories) was added. After 5 min incubation, the color development was stopped by adding […] 0.12 N HCl and the absorbance of the wells at 450 nm was measured by a plate reader (ICN).

ICAM-1 on HeLa cells [2] = biological target: T2, ICAM-1 on HeLa cells (UniProt P05362 28-532, limits assumed); assay: cell-based or functional assay
T2 sequence (P05362 28-532 limits assumed): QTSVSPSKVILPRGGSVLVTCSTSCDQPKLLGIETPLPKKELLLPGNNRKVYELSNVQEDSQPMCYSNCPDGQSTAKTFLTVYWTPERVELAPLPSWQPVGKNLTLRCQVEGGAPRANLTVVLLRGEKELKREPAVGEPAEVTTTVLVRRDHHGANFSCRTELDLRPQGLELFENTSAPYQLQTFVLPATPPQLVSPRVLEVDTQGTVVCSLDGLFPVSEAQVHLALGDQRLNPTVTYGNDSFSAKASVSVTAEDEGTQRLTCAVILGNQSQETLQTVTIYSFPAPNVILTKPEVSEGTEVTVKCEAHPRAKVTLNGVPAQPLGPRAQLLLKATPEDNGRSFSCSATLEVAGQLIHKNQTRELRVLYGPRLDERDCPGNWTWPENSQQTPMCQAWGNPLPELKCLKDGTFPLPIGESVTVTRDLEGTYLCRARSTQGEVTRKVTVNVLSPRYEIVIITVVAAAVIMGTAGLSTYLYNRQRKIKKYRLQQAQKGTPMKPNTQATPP

[3] = biological target: T1, soluble ICAM-1 (Bender MedSystems); assay: ELISA on plate-coated soluble ICAM-1, His-tagged scFv detected with anti-His-HRP
Protocol: as §1

ICAM-1 on HeLa cells [4] = biological target: T2, ICAM-1 on HeLa cells; assay: cell-based or functional assay; remark: listed apart in the source

T1 sequence (P05362 28-480 limits assumed): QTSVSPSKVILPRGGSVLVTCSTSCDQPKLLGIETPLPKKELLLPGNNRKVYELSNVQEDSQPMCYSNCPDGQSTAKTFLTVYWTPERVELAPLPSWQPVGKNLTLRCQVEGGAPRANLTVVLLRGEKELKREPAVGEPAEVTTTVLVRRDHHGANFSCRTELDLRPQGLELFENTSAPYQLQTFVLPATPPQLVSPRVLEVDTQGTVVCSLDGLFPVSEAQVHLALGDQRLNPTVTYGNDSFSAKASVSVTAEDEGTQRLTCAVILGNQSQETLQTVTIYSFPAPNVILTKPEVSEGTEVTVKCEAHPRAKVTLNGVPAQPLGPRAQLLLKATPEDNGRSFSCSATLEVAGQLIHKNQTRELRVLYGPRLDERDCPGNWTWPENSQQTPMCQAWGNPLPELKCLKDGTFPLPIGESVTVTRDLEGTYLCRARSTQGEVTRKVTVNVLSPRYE

Binder	fold higher binding affinity than the parental mouse scFv [1]	EC 50 (µM): 50% protection of HeLa cells against HRV15 infection at 1 MOI (ICAM-1 on HeLa cells [2])	Kd [3]	EC50 of protection of HeLa cells from HRV infection, against the parental mouse 1A6 scFv protein (ICAM-1 on HeLa cells [4])
HscD (humanized 1A6 scFv HumD) (scFv, not shown: carboxy-terminal His tag of vector pBAD/pIII A) scFv: DIQMTQSPSSLSASVGDRVTITCRASQSISNNLHWYQQKPGKAPKLLIYHASQSISGVPSRFSGSGSGTDFTLTISSLQPEDFATYYCQQSNSWPYTFGQGTKVEIKRGGGGSGGGGSGGGGSGGGGSEVQLVESGGGLVQPGGSLRLSCAASGFNIKDTYIHWVRQAPGKGLEWVARIDPANDNTIYADSVKGRFTISSDDSKNTAYLQMNSLRAEDTAVYYCTTSGYWFAYWGQGTLVTVSS	> 10 fold	0.05 µM	23.3 nM	–
HscA (humanized 1A6 scFv HumA) (scFv, also called humanized scFv A; scFV3; not shown: carboxy-terminal His tag of vector pBAD/pIII A) scFv: DIQMTQSPSSLSASVGDRVTITCRASQSISNNLHWYQQKPGKAPKLLIYHASQSISGVPSRFSGSGSGTDFTLTISSLQPEDFATYYCQQSNSWPYTFGQGTKVEIKRGGGGSGGGGSGGGGSGGGGSEVQLVESGGGLVQPGGSLRLSCAASGFNIKDTYIHWVRQAPGKGLEWVARIDPANDNTIYADSVKGRFTISSDDSKNTAYLQMNSLRAEDTAVYYCTDSGYWFAYWGQGTLVTVSS	> 10 fold	–	150 nM	–
HscF (humanized 1A6 scFv HumF) (scFv, not shown: carboxy-terminal His tag of vector pBAD/pIII A) scFv: DIQMTQSPSSLSASVGDRVTITCRASQSISNNLHWYQQKPGKAPKLLIYHASQSISGVPSRFSGSGSGTDFTLTISSLQPEDFATYYCQQSNSWPYTFGQGTKVEIKRGGGGSGGGGSGGGGSGGGGSEVQLVESGGGLVQPGGSLRLSCAASGFNIKDTYIHWVRQAPGKGLEWVARIDPANDNTIYADSVKGRFTISADDSKNTAYLQMNSLRAEDTAVYYCTTSGYWFAYWGQGTLVTVSS	> 10 fold	0.29 µM	46 nM	–
HscH (humanized 1A6 scFv HumH) (scFv, not shown: carboxy-terminal His tag of vector pBAD/pIII A) scFv: DIQMTQSPSSLSASVGDRVTITCRASQSISNNLHWYQQKPGKAPKLLIKHASQSISGVPSRFSGSGSGTDFTLTISSLQPEDFATYYCQQSNSWPYTFGQGTKVEIKRGGGGSGGGGSGGGGSGGGGSEVQLVESGGGLVQPGGSLRLSCAASGFNIKDTYIHWVRQAPGKGLEWVARIDPANDNTIYDPKVQGRFTISADDSKNTAYLQMNSLRAEDTAVYYCTTSGYWFAYWGQGTLVTVSS	> 10 fold	4.2 µM	20.9 nM	–
HscB (humanized 1A6 scFv HumB) (scFv, also called Hum19; Hum 19 scFv; not shown: carboxy-terminal His tag of vector pBAD/pIII A) scFv: DIQMTQSPSSLSASVGDRVTITCRASQSISNNLHWYQQKPGKAPKLLIYHASQSISGVPSRFSGSGSGTDFTLTISSLQPEDFATYYCQQSNSWPYTFGQGTKVEIKRGGGGSGGGGSGGGGSGGGGSEVQLVESGGGLVQPGGSLRLSCAASGFNIKDTYIHWVRQAPGKGLEWVARIDPANDNTIYADSVKGRFTISSDDSKNTAYLQMNSLRAEDTAVYYCTASGYWFAYWGQGTLVTVSS	> 10 fold	–	26.2 nM	> 60 fold
HscI (humanized 1A6 scFv HumI) (scFv, not shown: carboxy-terminal His tag of vector pBAD/pIII A) scFv: DIQMTQSPSSLSASVGDRVTITCRASQSISNNLHWYQQKPGKAPKLLIKHASQSISGVPSRFSGSGSGTDFTLTISSLQPEDFATYYCQQSNSWPYTFGQGTKVEIKRGGGGSGGGGSGGGGSGGGGSEVQLVESGGGLVQPGGSLRLSCAASGFNIKDTYIHWMRQAPGKGLEWVARIDPANDNTIYDPKVQGRFTMSADTSKNTAYLQMNSLRAEDTAVYYCTTSGYWFAYWGQGTLVTVSS	> 10 fold	> 10 µM	150 nM	–
HscC (humanized 1A6 scFv HumC) (scFv, not shown: carboxy-terminal His tag of vector pBAD/pIII A) scFv: DIQMTQSPSSLSASVGDRVTITCRASQSISNNLHWYQQKPGKAPKLLIYHASQSISGVPSRFSGSGSGTDFTLTISSLQPEDFATYYCQQSNSWPYTFGQGTKVEIKRGGGGSGGGGSGGGGSGGGGSEVQLVESGGGLVQPGGSLRLSCAASGFNIKDTYIHWVRQAPGKGLEWVARIDPANDNTIYADSVKGRFTISGDDSKNTAYLQMNSLRAEDTAVYYCTTSGYWFAYWGQGTLVTVSS	> 10 fold	–	58 nM	–
Msc1A6 (parental mouse monoclonal antibody 1A6 in the form of scFv) (scFv, V domains shown, Tested as a single-chain Fv (one polypeptide); also called Mouse 1A6 scFv; mouse IA6 scFv) VH: EVQLQQSGAELVKPGASLKLSCTASGFNIKDTYIHWMKQRPEQGLEWIGRIDPANDNTIYDPKVQGKATMTADTSSNTAYLQLNSLTSEDTAVYYCTTSGYWFAYWGQGTLVTVSS VL: DIVLTQSPATLSVTPGDSVSLSCRASQSISNNLHWYQQKHSESPRLLIKHASQSISGIPSRFSGSGSGTDFTLSINSVETEDFGMFFCQQSNSWPYTFGGGTKLEIKR	–	> 10 µM	1180 nM	–
